The experiment addresses T1, His-EGR1 (mouse, UniProt P08046 1-533).
T1 construct: Early growth response protein 1 (EGR1), mouse; plasmid pET28a-EGR1; also called His-tagged EGR1; source: E. coli BL21(DE3), purified (Ni-NTA)
The experiment is described as follows: pull-down; GST pull-down with affinity purified proteins; GST bait on GSH magnetic beads (BersinBio GST-pull down kit), His-EGR1 as prey; SDS-PAGE or Western blot. The note with it: both partners purified.

One molecule from article PMC11831459, “Lactylation of Histone H3k18 and Egr1 Promotes Endothelial Glycocalyx Degradation in Sepsis‐Induced Acute Lung Injury” (Advanced Science, 2024) can be followed below.

T1 sequence (P08046 whole entry): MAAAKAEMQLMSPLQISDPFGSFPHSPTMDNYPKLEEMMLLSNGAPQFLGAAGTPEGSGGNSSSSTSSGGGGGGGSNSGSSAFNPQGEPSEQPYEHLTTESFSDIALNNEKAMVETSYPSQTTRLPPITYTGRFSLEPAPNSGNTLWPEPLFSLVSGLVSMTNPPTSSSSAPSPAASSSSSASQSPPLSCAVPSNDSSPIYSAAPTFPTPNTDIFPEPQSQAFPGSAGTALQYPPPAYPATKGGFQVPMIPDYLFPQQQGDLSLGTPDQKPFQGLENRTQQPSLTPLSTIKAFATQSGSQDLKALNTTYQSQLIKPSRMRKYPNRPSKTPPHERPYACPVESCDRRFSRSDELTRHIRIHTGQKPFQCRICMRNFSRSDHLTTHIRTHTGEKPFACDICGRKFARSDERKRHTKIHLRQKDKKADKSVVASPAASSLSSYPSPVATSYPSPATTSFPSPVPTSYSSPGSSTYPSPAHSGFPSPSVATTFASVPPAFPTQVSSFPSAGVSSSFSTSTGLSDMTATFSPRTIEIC

B1: GST-KAT2B-WT (enzyme, mouse, UniProt Q9JHD1 1-813, looked up)
chain: MAEAGGAGSPALPPAPPHGSPRTLATAAGSSASCGPATAVAAAGTAEGPGGGGSARIAVKKAQLRSAPRAKKLEKLGVYSACKAEESCKCNGWKNPNPSPTPPRGDLQQIIVSLTESCRSCSHALAAHVSHLENVSEEEMDRLLGIVLDVEYLFTCVHKEEDADTKQVYFYLFKLLRKSILQRGKPVVEGSLEKKPPFEKPSIEQGVNNFVQYKFSHLPSKERQTTIELAKMFLNRINYWHLEAPSQRRLRSPNDDISGYKENYTRWLCYCNVPQFCDSLPRYETTKVFGRTLLRSVFTIMRRQLLEQARQEKDKLPLEKRTLILTHFPKFLSMLEEEVYSQNSPIWDQDFLSASSRTSPLGIQTVISPPVTGTALFSSNSTSHEQINGGRTSPGCRGSSGLEANPGEKRKMNNSHAPEEAKRSRVMGDIPVELINEVMSTITDPAGMLGPETNFLSAHSARDEAARLEERRGVIEFHVVGNSLNQKPNKKILMWLVGLQNVFSHQLPRMPKEYITRLVFDPKHKTLALIKDGRVIGGICFRMFPSQGFTEIVFCAVTSNEQVKGYGTHLMNHLKEYHIKHEILNFLTYADEYAIGYFKKQGFSKEIKIPKTKYVGYIKDYEGATLMGCELNPQIPYTEFSVIIKKQKEIIKKLIERKQAQIRKVYPGLSCFKDGVRQIPIESIPGIRETGWKPSGKEKSKEPKDPEQLYSTLKNILQQVKNHPNAWPFMEPVKRTEAPGYYEVIRFPMDLKTMSERLRNRYYVSKKLFMADLQRVFTNCKEYNPPESEYYKCASILEKFFFSKIKEAGLIDK
notes: Histone acetyltransferase KAT2B, mouse; plasmid pGEX-4T-1-KAT2B; source: E. coli BL21(DE3), purified (glutathione column)
For the molecule B1, the binding result is listed as “binds”.
